Source: patent US20250195629A1, “SITE-SPECIFIC BRAIN THERAPEUTICS” (William Marsh Rice University, priority 2023, published 2025)

Legend:
[1] = Mouse body weight analysis; type: in vivo; conditions: day 0 vs 2 days after injection, RLuc8.6 100 mg/kg, AADC-IKVAV 250 mg/kg
Procedure: To assess the potential impact of the RAID approach on the body weight of the mice involved in behavior analysis (n=11 mice for the FUS alone+L-DOPA group and n=14 mice for the FUS+AADC-IKVAV (SEQ ID NO: 23)+L-DOPA group), their body weight was recorded on a daily basis before and after FUS-BBBO administration. […] The body weight of the additional group of mice was also recorded in a similar manner; however, unintentionally four mice were omitted from weighing on the day following the AADC-IKVAV (SEQ ID NO: 23) injection. Similarly, the mouse body weight was recorded before and after the intravenous injection of unmodified or engineered RLuc8.6, which is related to the study presented in FIG. 5.

[2] = system: GFAP+ astrocytes; assay: Safety analysis, GFAP staining for astrocytic activation; type: in vivo, mouse; conditions: RAID treatment, FUS+AADC-IKVAV
Excerpt: Additionally, the brain sections stained for GFAP were imaged using a 4× objective in DAPI (nuclei) and far-red (GFAP) channels. Three square areas were then selected in both the left and right striatum respectively, each with 3×3 binning, for imaging with a 40× objective to quantify GFAP+ cells.
In FIG. 7, we applied the following brightness (white) thresholds for the corresponding channels: 6045 (DAPI, nuclei, not shown), 15,000 (Cy3, D1R), 16,000 (green, D2R), and 6045 (far-red, c-Fos), with a gamma value of 1. In FIG. 11, we applied a Brightness (White) threshold of 6045 for both DAPI (nuclei, not shown) and far-red (c-Fos) channels, with a Gamma value of 1. The images were then overlayed, and the c-Fos+ cells were manually counted. Similarly, the GFAP+ cells were manually counted, as shown in FIG. 15c and FIG. 17, by applying a Brightness (White) threshold of 5686 and a Gamma value of 1 for both the DAPI (nuclei) and far-red (GFAP, purple) channels.
Adjacent sections were stained separately with an anti-GFAP antibody to examine astrocytic activation. […]

B1: AADC-IKVAV: aromatic-L-amino-acid decarboxylase (AADC) protein fused with short peptide IKVAV (SEQ ID NO: 23); CDS SEQ ID NO: 21 (protein)
chain: MRGSHHHHHHGMASMTGGQQMGRDLYDDDDKDPMNASEFRRRGKEMVDYMANYMEGIEGRQVYPDVEPGYLRPLIPAAAPQEPDTFEDIINDVEKIIMPGVTHWHSPYFFAYFPTASSYPAMLADMLCGAIGCIGFSWAASPACTELETVMMDWLGKMLELPKAFLNEKAGEGGGVIQGSASEATLVALLAARTKVIHRLQAASPELTQAAIMEKLVAYSSDQAHSSVERAGLIGGVKLKAIPSDGNFAMRASALQEALERDKAAGLIPFFMVATLGTTTCCSFDNLLEVGPICNKEDIWLHVDAAYAGSAFICPEFRHLLNGVEFADSFNFNPHKWLLVNFDCSAMWVKKRTDLTGAFRLDPTYLKHSHQDSGLITDYRHWQIPLGRRFRSLKMWFVFRMYGVKGLQAYIRKHVQLSHEFESLVRQDPRFEICVEVILGLVCFRLKGSNKVNEALLQRINSAKKIHLVPCHLRDKFVLRFAICSRTVESAHVQRAWEHIKELAADVLRAEREGGSGSSGGSGGSGGSGIKVAV
modifications: misc_feature 1..1602 Synthetic: AADC-IKVAV
- Weight loss ([1]; FUS-BBBO + protein i.v., RLuc8.6-IKVAV 104 mg/kg): 10.3±0.5%
- Weight loss ([1]; protein i.v. alone without FUS): 13.8±0.8%
- numbers of GFAP+ astrocytes in targeted area vs contralateral site [2]: did not affect
